Measured values reported in article PMC6355003, “New interfaces on MiD51 for Drp1 recruitment and regulation” (PLoS ONE, 2019).

Experiments:
Settings in all cases: both partners purified
Drp1 K38A = target: T1, Drp1 K38A (UniProt O00429-4 1-699, K38A); assay: pull-down; GST-fused MiD51^133-463 or mutants on Glutathione Sepharose 4B, equal molar Drp1, 3 h at 4°C; 20 mM HEPES pH 7.5, 150 mM NaCl, 1% Triton X-100, 1 mM MgCl2; SDS-PAGE, Coomassie staining; no nucleotide
T1 construct: Drp1, GenBank NM_005690; also called K38A mutant of Drp1; dominant-negative GTPase mutation K38A; source: E. coli Rosseta (DE3), purified (Ni-NTA, anion exchange, size-exclusion chromatography)

Drp1 A395D/AAAA = target: T2, Drp1 A395D/AAAA (UniProt O00429-4 1-699, A395D | 401GPRP404→AAAA); assay: as above
T2 construct: Drp1, GenBank NM_005690; source: E. coli Rosseta (DE3), purified (Ni-NTA, anion exchange, size-exclusion chromatography)

Drp1 S600D = target: T3, Drp1 S600D (UniProt O00429-4 1-699, S600D); assay: as above
T3 construct: Drp1, GenBank NM_005690; S600 is S637 in Drp1 isoform 1 (printed); also called phosphorylation site mutant (related to S637 in Drp1 isoform 1); source: E. coli Rosseta (DE3), purified (Ni-NTA, anion exchange, size-exclusion chromatography)

Drp1 A395D = target: T4, Drp1 A395D (UniProt O00429-4 1-699, A395D); assay: as above
T4 construct: Drp1, GenBank NM_005690; source: E. coli Rosseta (DE3), purified (Ni-NTA, anion exchange, size-exclusion chromatography)

Drp1 G350D/A395D = target: T5, Drp1 G350D/A395D (UniProt O00429-4 1-699, G350D | A395D); assay: as above
T5 construct: Drp1, GenBank NM_005690; source: E. coli Rosseta (DE3), purified (Ni-NTA, anion exchange, size-exclusion chromatography)

Drp1 S579D = target: T6, Drp1 S579D (UniProt O00429-4 1-699, S579D); assay: as above
T6 construct: Drp1, GenBank NM_005690; S579 is S616 in Drp1 isoform 1 (printed); also called phosphorylation site mutant (related to S616 in Drp1 isoform 1); source: E. coli Rosseta (DE3), purified (Ni-NTA, anion exchange, size-exclusion chromatography)

Drp1 G350D/AAAA = target: T7, Drp1 G350D/AAAA (UniProt O00429-4 1-699, G350D | 401GPRP404→AAAA); assay: as above
T7 construct: Drp1, GenBank NM_005690; source: E. coli Rosseta (DE3), purified (Ni-NTA, anion exchange, size-exclusion chromatography)

Drp1 G350D = target: T8, Drp1 G350D (UniProt O00429-4 1-699, G350D); assay: as above
T8 construct: Drp1, GenBank NM_005690; source: E. coli Rosseta (DE3), purified (Ni-NTA, anion exchange, size-exclusion chromatography)

[1] = target: T9, Drp1 AAAA mutant (401GPRP404→AAAA) (UniProt O00429-4 1-699, 401GPRP404→AAAA); assay: pull-down; GST-MiD51^133-463 on Glutathione Sepharose; MiD51 and Drp1 mixed first, then no nucleotide (apo) or 1 mM GTP, GMP-PNP, GDP-AlFx or GDP in assay and wash buffer; 20 mM HEPES pH 7.5, 150 mM NaCl, 1% Triton X-100, 1 mM MgCl2; Coomassie staining
T9 construct: Drp1, GenBank NM_005690; source: E. coli Rosseta (DE3), purified (Ni-NTA, anion exchange, size-exclusion chromatography)

[2] = target: T10, Drp1 (dynamin-related protein Drp1), wild type (UniProt O00429-4 1-699); assay: as above
T10 construct: Drp1, GenBank NM_005690; also called wild-type Drp1; source: E. coli Rosseta (DE3), purified (Ni-NTA, anion exchange, size-exclusion chromatography)

Measured: binding result

B1: GST-MiD51^133-463, wild type (domain or fragment, human, UniProt Q9NQG6-1 133-463, looked up)
chain: MSLQEKLLTYYRNRAAIPAGEQARAKQAAVDICAELRSFLRAKLPDMPLRDMYLSGSLYDDLQVVTADHIQLIVPLVLEQNLWSCIPGEDTIMNVPGFFLVRRENPEYFPRGSSYWDRCVVGGYLSPKTVADTFEKVVAGSINWPAIGSLLDYVIRPAPPPEALTLEVQYERDKHLFIDFLPSVTLGDTVLVAKPHRLAQYDNLWRLSLRPAETARLRALDQADSGCRSLCLKILKAICKSTPALGHLTASQLTNVILHLAQEEADWSPDMLADRFLQALRGLISYLEAGVLPSALNPKVNLFAELTPEEIDELGYTLYCSLSEPEVLLQT
notes: also called cytosolic domain of MiD51; source: E. coli BL21 (DE3), purified (Glutathione Sepharose, eluted with reduced glutathione)
binds: all assays above
